T1: APBA1_1, Q02410
T1 sequence (Q02410 651-752, limits assumed, looked up): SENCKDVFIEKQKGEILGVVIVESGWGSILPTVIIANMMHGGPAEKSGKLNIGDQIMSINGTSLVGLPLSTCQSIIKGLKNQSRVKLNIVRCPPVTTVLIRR

T2: APBA1_2, Q02410
T2 sequence (Q02410 742-832, limits assumed, looked up): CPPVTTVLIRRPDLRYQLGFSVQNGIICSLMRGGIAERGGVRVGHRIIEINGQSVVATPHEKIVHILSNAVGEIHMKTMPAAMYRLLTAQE

T3: DLG3_1, Q92796
T3 sequence (Q92796 125-227, limits assumed, looked up): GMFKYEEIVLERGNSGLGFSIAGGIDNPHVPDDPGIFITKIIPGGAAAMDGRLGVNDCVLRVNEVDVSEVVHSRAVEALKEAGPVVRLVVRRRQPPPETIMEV

T4: DLG3_3, Q92796
T4 sequence (Q92796 374-475, limits assumed, looked up): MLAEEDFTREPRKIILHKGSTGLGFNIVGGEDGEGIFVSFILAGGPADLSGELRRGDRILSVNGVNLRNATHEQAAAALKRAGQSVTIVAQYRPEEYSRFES

T5: GRIP1_3, Q9Y3R0
T5 sequence (Q9Y3R0 247-346, limits assumed, looked up): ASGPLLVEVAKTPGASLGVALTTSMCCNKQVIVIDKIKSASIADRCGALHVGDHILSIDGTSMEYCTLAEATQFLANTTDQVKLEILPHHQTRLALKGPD

T6: GRIP1_5, Q9Y3R0
T6 sequence (Q9Y3R0 568-668, limits assumed, looked up): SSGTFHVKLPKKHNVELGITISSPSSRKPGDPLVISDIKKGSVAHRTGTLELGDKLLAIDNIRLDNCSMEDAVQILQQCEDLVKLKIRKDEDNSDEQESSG

T7: LNX2_2, Q8N448
T7 sequence (Q8N448 334-432, limits assumed, looked up): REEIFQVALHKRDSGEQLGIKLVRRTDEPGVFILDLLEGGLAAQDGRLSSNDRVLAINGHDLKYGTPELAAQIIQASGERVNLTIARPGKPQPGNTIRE

T8: MPP2, Q14168
T8 sequence (Q14168 180-250, limits assumed, looked up): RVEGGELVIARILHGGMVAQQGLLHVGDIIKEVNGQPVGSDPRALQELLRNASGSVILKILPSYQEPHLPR

T9: NHERF3_1, Q5T2W1
T9 sequence (Q5T2W1 4-100, limits assumed, looked up): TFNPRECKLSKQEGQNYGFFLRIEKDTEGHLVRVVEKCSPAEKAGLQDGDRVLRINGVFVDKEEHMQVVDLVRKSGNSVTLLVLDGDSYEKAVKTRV

T10: RHPN1, Q8TCX5
T10 sequence (Q8TCX5 508-602, limits assumed, looked up): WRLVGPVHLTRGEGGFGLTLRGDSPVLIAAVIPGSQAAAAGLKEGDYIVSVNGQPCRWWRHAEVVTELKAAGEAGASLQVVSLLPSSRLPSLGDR

T11: SYNJ2BP, P57105
T11 sequence (P57105 8-110, limits assumed, looked up): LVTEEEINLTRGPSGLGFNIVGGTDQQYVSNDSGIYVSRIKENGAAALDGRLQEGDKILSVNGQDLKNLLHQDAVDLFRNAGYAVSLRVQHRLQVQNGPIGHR

T12: TIAM2, Q8IVF5
T12 sequence (Q8IVF5 885-986, limits assumed, looked up): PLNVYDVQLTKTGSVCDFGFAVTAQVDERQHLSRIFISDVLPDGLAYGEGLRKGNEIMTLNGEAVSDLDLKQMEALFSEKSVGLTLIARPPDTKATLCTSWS


Key:
Test in all cases: holdup assay
Set-up in all cases: key: below the threshold = too weak to quantify, mostly under pKd 3.1 to 4
Conditions in all cases: plain residues with an end cap or a label only (N-terminal biotin on a linker: ado-ado)
[1] = biological target: AHNAK1, Q09666
[2] = biological target: T1, APBA1_1, Q02410
[3] = biological target: T2, APBA1_2, Q02410
[4] = biological target: T3, DLG3_1, Q92796
[5] = biological target: T4, DLG3_3, Q92796
[6] = biological target: DLG4_1, P78352
[7] = biological target: FRMPD2_3, Q68DX3
[8] = biological target: GRID2IP_2, A4D2P6
[9] = biological target: T5, GRIP1_3, Q9Y3R0
[10] = biological target: T6, GRIP1_5, Q9Y3R0
[11] = biological target: GRIP2_4, Q9C0E4
[12] = biological target: GRIP2_5, Q9C0E4
[13] = biological target: HTRA1, Q92743
[14] = biological target: IL16_3, Q14005
[15] = biological target: Inadl_8, Q8NI35
[16] = biological target: T7, LNX2_2, Q8N448
[17] = biological target: MAGI1_1, Q96QZ7
[18] = biological target: T8, MPP2, Q14168
[19] = biological target: T9, NHERF3_1, Q5T2W1
[20] = biological target: NOS1, P29475
[21] = biological target: PDLIM1, O00151
[22] = biological target: PICK1, Q9NRD5
[23] = biological target: T10, RHPN1, Q8TCX5
[24] = biological target: SNX27, Q96L92
[25] = biological target: T11, SYNJ2BP, P57105
[26] = biological target: T12, TIAM2, Q8IVF5

GRIP2_5, Q9C0E4, sequence (Q9C0E4 544-642): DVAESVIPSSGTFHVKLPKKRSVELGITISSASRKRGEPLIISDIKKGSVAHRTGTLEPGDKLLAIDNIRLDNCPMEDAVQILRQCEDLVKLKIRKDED
Inadl_8, Q8NI35, sequence (Q8NI35 1425-1530): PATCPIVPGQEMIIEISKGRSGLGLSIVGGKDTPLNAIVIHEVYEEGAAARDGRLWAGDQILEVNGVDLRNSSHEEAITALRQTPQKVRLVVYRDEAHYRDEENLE
GRIP2_4, Q9C0E4, sequence (Q9C0E4 446-548): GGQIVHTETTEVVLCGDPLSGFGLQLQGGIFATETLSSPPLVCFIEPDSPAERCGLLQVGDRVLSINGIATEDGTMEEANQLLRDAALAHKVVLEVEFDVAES
PICK1, Q9NRD5, sequence (Q9NRD5 17-115): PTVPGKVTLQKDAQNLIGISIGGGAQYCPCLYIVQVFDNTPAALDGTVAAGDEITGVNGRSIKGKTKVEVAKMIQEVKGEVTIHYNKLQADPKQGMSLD
GRID2IP_2, A4D2P6, sequence (A4D2P6 272-370): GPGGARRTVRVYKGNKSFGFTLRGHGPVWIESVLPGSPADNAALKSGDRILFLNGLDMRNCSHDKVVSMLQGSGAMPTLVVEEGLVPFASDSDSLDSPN
MAGI1_1, Q96QZ7, sequence (Q96QZ7 1-106): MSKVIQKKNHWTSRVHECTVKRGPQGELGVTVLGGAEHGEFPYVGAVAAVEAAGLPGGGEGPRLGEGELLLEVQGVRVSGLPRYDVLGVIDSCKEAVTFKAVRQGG
NOS1, P29475, sequence (P29475 9-101): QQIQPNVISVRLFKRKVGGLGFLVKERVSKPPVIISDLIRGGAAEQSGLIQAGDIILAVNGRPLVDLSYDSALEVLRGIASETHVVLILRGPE
HTRA1, Q92743, sequence (Q92743 360-477): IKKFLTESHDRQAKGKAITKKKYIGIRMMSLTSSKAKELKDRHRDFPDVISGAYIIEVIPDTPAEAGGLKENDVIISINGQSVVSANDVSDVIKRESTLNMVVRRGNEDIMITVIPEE
PDLIM1, O00151, sequence (O00151 1-87): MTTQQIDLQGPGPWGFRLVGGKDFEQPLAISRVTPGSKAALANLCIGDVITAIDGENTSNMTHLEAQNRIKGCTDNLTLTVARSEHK
AHNAK1, Q09666, sequence (Q09666 4-100): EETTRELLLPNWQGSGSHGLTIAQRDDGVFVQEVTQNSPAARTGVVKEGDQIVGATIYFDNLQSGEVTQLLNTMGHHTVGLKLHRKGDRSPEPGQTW
DLG4_1, P78352, sequence (P78352 62-152): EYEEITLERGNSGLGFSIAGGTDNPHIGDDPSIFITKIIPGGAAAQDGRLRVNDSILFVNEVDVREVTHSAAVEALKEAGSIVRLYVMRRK
IL16_3, Q14005, sequence (Q14005 1107-1207): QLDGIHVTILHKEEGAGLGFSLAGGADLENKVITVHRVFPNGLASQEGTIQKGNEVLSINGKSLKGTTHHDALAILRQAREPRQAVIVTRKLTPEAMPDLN
FRMPD2_3, Q68DX3, sequence (Q68DX3 1073-1166): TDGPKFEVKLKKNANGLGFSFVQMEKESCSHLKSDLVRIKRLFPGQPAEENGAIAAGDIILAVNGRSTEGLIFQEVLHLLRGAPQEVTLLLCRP

Row | Binder | pKd [1] | pKd [2] | pKd [3] | pKd [4] | pKd [5] | pKd [6] | pKd [7] | pKd [8] | pKd [9] | pKd [10] | pKd [11] | pKd [12] | pKd [13] | pKd [14] | pKd [15] | pKd [16] | pKd [17] | pKd [18] | pKd [19] | pKd [20] | further results
1 | SARSRLSSNL [HCN2, Q9UL51] | below the threshold | below the threshold | below the threshold | below the threshold | below the threshold | below the threshold | below the threshold | 4.37 | below the threshold | below the threshold | below the threshold | below the threshold | below the threshold | below the threshold | below the threshold | below the threshold | below the threshold | below the threshold | 4.72 | below the threshold | pKd [21]: below the threshold; pKd [22]: below the threshold; pKd [23]: 3.92; pKd [24]: 4.3; pKd [25]: 3.76; pKd [26]: below the threshold
2 | GSGAVEMESV [AQP6, Q13520] | below the threshold | below the threshold | 3.58 | below the threshold | below the threshold | below the threshold | below the threshold | below the threshold | below the threshold | below the threshold | below the threshold | below the threshold | below the threshold | below the threshold | below the threshold | 3.49 | below the threshold | below the threshold | below the threshold | below the threshold | pKd [21]: below the threshold; pKd [22]: below the threshold; pKd [23]: below the threshold; pKd [24]: 3.7; pKd [25]: below the threshold; pKd [26]: below the threshold

Reference: PMC9482650, “Quantitative fragmentomics allow affinity mapping of interactomes” (Nature Communications, 2022)
